The text below walks through data of the RNAGym collection of RNA variant scans (doi:10.1073/pnas.2313332121).

First the molecules themselves.
B1: TPR t1 (parent)
chain: GACCAAUCUGCCCUCAGAGCUCGAGAACAUCUUCGGAUGCAGAGGAGGCAGGCUUCGGUGGCGCGAUAGCGCCAACGUCCUCAACCUCCAAUGCAUCCCACCACAUGAUGAUGCCUGAAGAGCCUUGGUUUUUUG

The variants in this data set derive from B1. Nature of the data set: polymerase ribozyme fitness, log enrichment relative to wild type (log ratio); higher = more active; in vitro selection for triplet polymerase activity. In outline:
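Only genotypes with ≥10 input reads and ≥1 read per output were kept after Illumina sequencing of input and output libraries. These libraries were PCR-built, transcribed mutants of each subunit of a heterodimeric triplet polymerase ribozyme, each put through one triplicate in vitro selection round with frozen incubation at −7 °C, gel excision of extended constructs, streptavidin-bead capture and RT-PCR. Fitness is a logarithmic ratio of genotype enrichment to wild-type enrichment, from inverse-variance-weighted replicate averages, with the logarithm in base 2.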
A29C C62U C94A: the “polymerase ribozyme fitness (log ratio)” value is -3.98. In the case of U32C G120C, the “polymerase ribozyme fitness (log ratio)” value is 1.83. With U30C C101U A111C, the “polymerase ribozyme fitness (log ratio)” value was -3.68. With A29G A46U G52U G57U C80U U87G C115G the figure was -5.18. With U33G G128A the figure was -6.19. With U33C A46G C64G C86A C115G the figure was -5.34.

As to C28U G52U, the “polymerase ribozyme fitness (log ratio)” value is -2.88. With A29U G61A the figure was -1.45. Take A29U C115A: the “polymerase ribozyme fitness (log ratio)” value is -1.59. For U32C C56A C80U the value was -1.66. With U33A G117U the figure was -5.29; with C34A G93A C101U, -3.81. For C34A C64G the value was -6.42. For U30G C49G G113C, the “polymerase ribozyme fitness (log ratio)” value was -5.95. With U32C C62A C82G G120C the figure was -2.66. For C34A U87A A105G, the “polymerase ribozyme fitness (log ratio)” value was -6.02. With U33A G63A the figure was -6.46; with C31G C85U C123U, -5.56; with C31U C70U C72U, -5.69. With U30C G47U C53U U54A U133A the figure was -4.89; with C34A C40U G48C C114U G120C, -3.6. C28U G52A C73U: the “polymerase ribozyme fitness (log ratio)” value was -2.19. Consider C34A A75G, for which the “polymerase ribozyme fitness (log ratio)” value was -2.34.

With A29G C115A, the “polymerase ribozyme fitness (log ratio)” value was -0.195. With A29U G48A U92C C101U C114A the figure was -5.72; with U30G U32C, -6.32. As to U33A G48U U55C U109C A121G C124A G127C, the “polymerase ribozyme fitness (log ratio)” value was -5.45. As for C34A C124A, the “polymerase ribozyme fitness (log ratio)” value is -1.1. For C28U G60U the value was -1.24; for C28U G60A, -2.05; for C28U G48U U78A, -3.25. With C31G A50G G60A C79A C124A the figure was -7.23. For U33G U133G the value was -6.24; for C34G C62U C94G A105C U130C, -7.14; for U32G A43G C73U A105U G120C, -7.51. With A29G C53G A95G, the “polymerase ribozyme fitness (log ratio)” value was -2.04. For U32C G52A G61A U125A the value was -0.743; for A29U G47U C62U, -4.34; for A29U U59G G120C, -1.14. With A29U A46G U125A the figure was -2.44.

With A29U C72U C98U A111C, the “polymerase ribozyme fitness (log ratio)” value was -3.77. With C28U G44C C79U C82U U126C G127U U129G the figure was -3.26; with U30G A43U A91U G113U, -6.55; with C34A U59A C115U A118U, -6.82.

Consider U33A C82A, for which the “polymerase ribozyme fitness (log ratio)” value was -5.5. For U32A G39U G45C C64G C114A the value was -6.51; for C31A C56U, -4.45; for C31U G47U U112C G120C, -4.82.

Consider A29U C89U A119U, for which the “polymerase ribozyme fitness (log ratio)” value was -3.93. With U32A C40G C56A A84U the figure was -6.15; with U32C C53A C101A G120A, -0.18; with C31G C53A G60A C94U U106A, -5.77. With A29G C34A C40A U106G G113U U126C the figure was -7.15; with C34A A50C, -3.5; with U32G C62U A105U U112G, -6.91. For C34A G44A G48A G61U A121C C123G the value was -4.48. For the variant C28U G61C U106A G113C, the “polymerase ribozyme fitness (log ratio)” value is -5.31. For A29U G58A C115U the value was -2.3; for C31A G77C U112C, -4.36; for C31G, -7.22. As for C31U, the “polymerase ribozyme fitness (log ratio)” value is -4.29. With C31A the figure was -5.84; with U33G G60U C85G, -7.61; with U32C A84U, -0.174. C34G C72U: the “polymerase ribozyme fitness (log ratio)” value is -5.89. For A29G G120U U132A, the “polymerase ribozyme fitness (log ratio)” value is -1.63. For C34A G36C A46G G93U A119G the value was -3.14. With C28U U78C C101U the figure was -2.49; with A29U A83G C86U, -2.72; with C31G U33A C64A G120C, -6.19. With U33A C56G G69U the figure was -2.45; with C34A G71U A75G, -4.12. With C34G C72A U106G A119U, the “polymerase ribozyme fitness (log ratio)” value is -7.42. With U32C C79G U81C G113A the figure was -2.36. With U32C C49A the figure was -0.089; with A29G U59G, -1.48; with U30G C102G U112G, -7.15.

C34G C64U: the “polymerase ribozyme fitness (log ratio)” value was -6.18. As to U32C U55G C102A, the “polymerase ribozyme fitness (log ratio)” value is -2.56. For A29G G61A G93A C102G G117C the value was -7.25. Take C31G C56A G60U U109A: the “polymerase ribozyme fitness (log ratio)” value is -7.12. For U32C G44U G60A the value was -0.98; for A29U C56G A66U, -3. With C31A C115U, the “polymerase ribozyme fitness (log ratio)” value was -7.47. With C34A A105U A121U, the “polymerase ribozyme fitness (log ratio)” value was -1.99. For A29U C49G C101G C124G, the “polymerase ribozyme fitness (log ratio)” value was -3.93. For A29U G69U U81C A100U C124A the value was 0.115. For U32C G52A U78C C101A, the “polymerase ribozyme fitness (log ratio)” value was -1.13.

On to C31A C40G A46G G63A A111U, for which the “polymerase ribozyme fitness (log ratio)” value was -6.15.

In the case of U33C G39U A111C A121C, the “polymerase ribozyme fitness (log ratio)” value was -5.95.

As for C28U G39A G45A G120A, the “polymerase ribozyme fitness (log ratio)” value was -2.28.

Consider U33G C104U C123G, for which the “polymerase ribozyme fitness (log ratio)” value was -4.29. With U32C C40U C86G the figure was -2.2; with U33A U59A U112C G122C, -4.47.

Regarding A29G C101A, the “polymerase ribozyme fitness (log ratio)” value was -3.99. With C28U U125A, the “polymerase ribozyme fitness (log ratio)” value is -2.25. For C34A G120A the value was -2.29; for C28U G36C C56U U81C G122U C124U U132C, -2.46; for A29C C70U A118G, -2.26. For A29G C123A the value was -0.494. As to U32C C64U, the “polymerase ribozyme fitness (log ratio)” value came out at 0.123. Take A29G A43G G107U C124U: the “polymerase ribozyme fitness (log ratio)” value was -6.92.

In the case of U32C G113A U126G U133C, the “polymerase ribozyme fitness (log ratio)” value was -4.07. For U32C C80U A83U C123G U130G the value was -1.77; for C34A A50C C53G U106A A111C, -5.87; for A29U A43U U78C U112A, -2.84. Consider A29C C53U C80U A90G, for which the “polymerase ribozyme fitness (log ratio)” value is -3.07. For U30C G48C C64U U81A U87A C124A the value was -4.9; for C31U A46C G47U C98A G120C, -7.6; for A29U A37U C40U G71C, -2.78. Consider U33C G45A, for which the “polymerase ribozyme fitness (log ratio)” value is -5.98. For A29U C123A the value was -1.43; for A29U C124U, -0.47; for C34G C72U U109A A119U C123U, -8.4. For U32C C104U U112G the value was 0.174. For U30C G42U G60A the value was -5.14; for A29G A83C, -1.32. In the case of U32G U33C A43U A91U, the “polymerase ribozyme fitness (log ratio)” value was -6.04.

For C34A G52A U96C C124A, the “polymerase ribozyme fitness (log ratio)” value is -1.41. With U32C C79U U106C the figure was -0.788; with A29G G42A G63A, -4.31. With C34A G48A C73U C101A the figure was -4.83; with A29U A75U A83G U112G U133C, -2.19; with C28U G45C, -3.26. With C28U G45A the figure was -2.04. As for C34A G61U A111G, the “polymerase ribozyme fitness (log ratio)” value is -2.85.

Regarding C34A G44A G48A U59A G61U C72U A121C C123G, the “polymerase ribozyme fitness (log ratio)” value was -6.

Consider U32A G47U C72U A83U, for which the “polymerase ribozyme fitness (log ratio)” value is -5.74. For C31U C124U the value was -3.64. For U33A C89A the value was -6.86; for C34A A83G A100U, -5.18; for C34A A41G, -3.94. With A29U G63U the figure was -2.58. For the variant A29U C40A G52C G110U, the “polymerase ribozyme fitness (log ratio)” value is -3.01. Consider A29G G69C G77C, for which the “polymerase ribozyme fitness (log ratio)” value was -4.34. With A29U U96C the figure was -1.87. With U33A G61A U87A U133G the figure was -4.05; with A29U A83C C124A, -0.511; with C34A C94U A121G U125A U129A, -3.

For the variant C34G A111G G127A, the “polymerase ribozyme fitness (log ratio)” value was -5.87. For C34G A108G the value was -6.09; for U32G C56A C97A U109A, -6.23; for C28U U96G, -2.43. For U32C C73U C85U C98U the value was -4.19; for C28U G42U G44U G61U, -4.27; for U33A A46C G69U U78G, -2.03.

Regarding U33A C64U U87A, the “polymerase ribozyme fitness (log ratio)” value was -4.27. With U32C A90G C97A U130G the figure was -5.05; with C28U C124A U125A, -0.0946. For U32G A103G C104A C123A the value was -6.74; for U32A G44U U55A, -5.23; for A29G G69U A95G, -1. For C34A C101U the value was -2.53.

For the variant C31U G57C U106A, the “polymerase ribozyme fitness (log ratio)” value was -0.497. For U32C U116C the value was -1.17; for U30C C40U U55G, -4.05; for A29U C72U C104U, -1.81. A29G U32C A50U: the “polymerase ribozyme fitness (log ratio)” value is -1.45. With U30C C72A the figure was -2.24; with U32G A41G C70U C89G C114U, -5.66; with C31G C80A A105G G113A, -4.57. For C31U C40U G45A the value was -6.8. For A29G C49G G71A U125G the value was -3.8. Regarding A29U A66C, the “polymerase ribozyme fitness (log ratio)” value was -2.83.

Regarding U33C C49A, the “polymerase ribozyme fitness (log ratio)” value was -5.36. With U30C C88U the figure was -2.37. For A29U C72U the value was -2.19.
